Assay: yeast display, Sf9 membrane polyspecificity reagent, FACS + sequencing; frameworks hold sequencing errors
How it was run: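 Using colony PCR, genes from sorted yeast display clones were amplified, then sequenced on MiSeq at 2 × 250 and filtered by CDR length. The clones had been stained with 10% biotinylated, detergent-solubilized Sf9 membrane reagent for 1 hour at 4 °C and sorted by FACS into low and high (top ~1%) gates on anti-HA and streptavidin fluorescence. Polyreactivity labels come from the gate of origin.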

## QVQLVESGGGLVQAGGSLRLSCAASGRTFKYYAMGWYRQAPGKERELVATITYSGGSTYYADSVKGRFTISRDNAKNTVYLQMNSLKPEDTAVYYCNKVIFLSQSSYSFHYAYDYWGQGTQVTVSS
  polyreactivity (PSR sort gate): high polyreactivity

## QVQLVESGGGLVQAGGSLRLSCAASGSIFVNKGMGWYRQAPGKERELVAAIRLSTGSTYYADSVKGRFTISRDNAKNTVYLKINSLKREDTAVDDCATRYYIWGNWGQGTQVTGSS
  polyreactivity (PSR sort gate): high polyreactivity

## QVQLVESGGGLVQAGGSLRLSCAASGRIITAYAMGWNRQAPGKEREFVAAINVSGGSTYYADSVKGRFTISRDNAKNTVYLQMNSLKPEDTAVYYCNADYYYYDIYWWKMDYWGQGTQVTVSS
  polyreactivity (PSR sort gate): low polyreactivity

## QVQLVETGGGLVQAGGSLRLSCAASGITLPKYAMGWYRQAPGKERELVAAISRSSGRTYYADSVKGRFTISRDNAKNTVYLQMNSLKPEDTAVYYCAASHGGYITRYNYWGQGTQVTVSS
  polyreactivity (PSR sort gate): high polyreactivity

## QVQLVESGGGLVQAGGSLRLSCAASGRTFYRYAMGWYRQAPGKEREFVATISRSGGSTFYADSVKGRFTISRDNAKNTVYLQMNSLKPEDTAVYYWAAVGWYPYQMVYWGQGTQVTVSS
  polyreactivity (PSR sort gate): high polyreactivity

## QVQLVESCGGLVQAGGSLRLSCAASGYIFVNYAMGWYRQAPGKQRELVARITGSGGSTDYADSVKGRFTISRDNAKNTVYLQMNSLKPEDTAVYYCNTKYVRYLRYYTYKYWGHGTQVTVSS
  polyreactivity (PSR sort gate): low polyreactivity

## QVQLVESGGGLVQAGGSLRLSCAASGSTFILNDMGWYRQAPGKERELVAAIDWGDSTTYYADSVKGRFTISRDNAKNTVYLQMNSLKPEDTAVYYCAADYAVSAFTRYPPTEYWGQGTQVTVSS
  polyreactivity (PSR sort gate): high polyreactivity

## QVKHVESGGGLVQAGGSLRLTCAASGSIFYRNAMGWYRQAPGKERELVAGISRRGGSTYYADSVKGRFTMSRDNAKNTVYLQMNSLKPEDTAGYYCAADFAWVRLTYGYCGQGTQVTVSS
  polyreactivity (PSR sort gate): low polyreactivity

## QVQLVESGGGLVQAGGSLRLSCAASGITFQNYAMGWYRQAPGKERELVAAITGRGGSTYYADSVKGRFTISRDNAKHTVYLQMNSLKPEDTAVYYCATDRRGYRDDYWGQGTQVTVSS
  polyreactivity (PSR sort gate): high polyreactivity

## QVQLVESGGGLVQAGGSLRLSCAASGFTFVINDMGLYRQAPGKERELVADITSGGDTYYADSVKGRFTISRDNAKNTVYLQMNSLKPEDTAVYYCAADIYPDWIYLLYGYWGQGTQVTVSS
  polyreactivity (PSR sort gate): low polyreactivity

## QVQLVESVGGLVQAGGSLLLSCAASGGIFWVYAMGWYRQAPGKERELVAAISNSDTSTSYADSVKGRFTISRDNAKNTVFLQMNSLKPEDTAVYYCNADSPSLSGDYWGQGTQVTVSS
  polyreactivity (PSR sort gate): low polyreactivity

## QVQLVESGGGLVQAGGRLRLSCAASGSIFVYNALGWYRQAPGKQRELVAGITFIGGSTYYAESVKGRFTISRDNAKNTVYVQMNSRKPEDTAVYYCNKFPVSPPSYYWGQGTQVTVSS
  polyreactivity (PSR sort gate): low polyreactivity

## QVQLVESGGGLVQSGGILLLSCAASGITFGRNAMGWYRQAPGKEGELVAAISRGGSTNYADSVKGRFTISRDNAKNTVYLQMNRLKPEDTAVYYCATAYRGRAWGYDYWGQGTQVTVSS
  polyreactivity (PSR sort gate): high polyreactivity

## QVQLVESGGGLVQAGGSLRLSCAASGRIFVKYAMGWYRQEPGKERELVAAIRWSVGSTYYADSVKGRFTISRDNAKNTVYLLMNSLKPEDTAVYYCAAQPVRKLYWGQGTQVTVSS
  polyreactivity (PSR sort gate): high polyreactivity

## QVQLVESGGGLVQAGGSLRLSCAASGFIFVGYAMGWYRQAPGKERELVAAISKSGGSTYYADSVKGRFTISRDNAKNTVYLQMNSLKPEDTAVYYCAAAYASRNYRGLDYWGQGIQVTVSS
  polyreactivity (PSR sort gate): high polyreactivity

## QVQLVESGGGLVQAGGSLRLSCAASGGTFAGYAMGWYRQAPGKERELVAAISWSSGRTYYADSVKGRFTISRDIAKNSVYLQMNSLKPEETAVYDCTVLRYRGYDYWGQGTQVTVSS
  polyreactivity (PSR sort gate): high polyreactivity

## QVQHVESVGGLVQAGGSLPLSCDASGSIFGPNAMGWYRQAPGKESELVAAISGSGGSTYYADSVKGRFTISRDNAKNTVYLQMNSLKPEATAVYYCAADLDGTLSVYDYHTTGDDYWGQGTQVTVSS
  polyreactivity (PSR sort gate): low polyreactivity

## QVQLQENGGGLVQAGGSLRLSCAASGTILYSLGMGWYRQAPGKRREFVASITWGTTTNYAESVKGRFTISRDNAKNSVYPQMNSLKPEDTAVYYCAAPPFGDSSYHYWGQGTQVTVSS
  polyreactivity (PSR sort gate): low polyreactivity

## QVQLVESGGGLVQAGGSLRLSCAASGFTFRYYAMGWYRQAPGKERELVASTYYADYVKGRFTISRDNAKNTVYLQMNSLKPEDTAVYYCNVDGTSSSPFVQKHKEMDYWGQGTQVTVSS
  polyreactivity (PSR sort gate): low polyreactivity

## QVQLVESGGCLVQAGGSLRFSCAASGSTFHRYVMGWYRQAPGKERELVAVINSTGGSTYYADSVKGRYTISRDNAKNTVYLQMNSLKPEDTAVYYCARVTRRGPGYTTLYSRYDYWGQGTQVNVSS
  polyreactivity (PSR sort gate): low polyreactivity

## QGQLVESGGGLVQAGGSLRFSCADSGRIFHRYVMGWYRQAPGKERELVAAISWSSGSTSADSVKGRFTISRDNAKNTDYLQMNSLKPEDTAVYYCNASYNGVPARYDYWGQGTQVTVSS
  polyreactivity (PSR sort gate): low polyreactivity

## QVQLVESGGGLVQAGGSLRLSCAASGIIFSYNVMGWSREARGKEREFVAAISRSVGSTYYADSVKGRFTISRDNAKNTVYLPMNSLKPEDTAVYYCNARGKRRGKIPYSSYASSYDSWGQGTQVTVSS
  polyreactivity (PSR sort gate): high polyreactivity

## QVQLVESGGGLVQAGGSLRLSCADSGFISDWYAMGWYRQAPGKERELVATIDWIGGSTYADSVKGRFTISRDNAKNTVYLQMNSMKPEDTAVYYCNAYAFDSVREEDYWGQGTQVTVSS
  polyreactivity (PSR sort gate): low polyreactivity

## QVQLVESGGGLVQAGGSLRLSCAASGRTFYYYALGWYRQAPGKERELVAVIRSSGDSTYYADSVKGRFTISRDNANNTVYLQMNSLKPEDTAVYYCNADPGEVLVGYDYWGQGTQVTVSS
  polyreactivity (PSR sort gate): low polyreactivity

## QVQLVESGGCLVQEGGSLRLSCDASGRTFLTYAMGWYRQAPGKERELVAAITDGDSTNYADSVKGRFTISRDNAKNNVYLQMNSLKPEDTAVYYCNADSLAYRYYYWGQGTQVTVSS
  polyreactivity (PSR sort gate): high polyreactivity

## QVQLVESGGGLVQAGGRLRLSCAASGRTLGANAMGWYRQAPGKERELVAAITDSGGSTYYADSVKGRFTISRDNAKNTVYLQMNSLKPEDTAVYYCAAKQAYSSTYVWPIFDYWGQGTQVTVSS
  polyreactivity (PSR sort gate): low polyreactivity

## QVQLVESGGGFVQAGGSLSLSCAASGSTFIRYVMGWYRQAPGKERELVASITISVGSTYADSVKGRFTISRDNAKNTVYLQMNRMNPEDTAVYYCAASTLKDIYLWFRVDYWGQGTQVTVSS
  polyreactivity (PSR sort gate): low polyreactivity

## QVQLVESGGGLVQAGGSLRLSCAASGFTFAVNVMGWYIHAPGKEREFDAAISWTGGSTDYADSVKGRFTISLDNAKNTVYLQMNSLKPEDTAVYYCAADYNLRLQPFRKLVGPAGGYWGQGTQLTVSS
  polyreactivity (PSR sort gate): low polyreactivity

## QVQLVESGGGLDQAGGSLRLSCAASGSIFWAYVMGWYRQAPGKERELVARISSGGRTKYADSVKGRFTISRDNAKNTVYLQMNSLKPEDTAVYYCNADASSSPYTDRQYIGADDSWGHGTQVTVSS
  polyreactivity (PSR sort gate): low polyreactivity

## QVQLVESGGGLVQAGGSLRLSCAASGSNFAVYAMGWYRQAPGKERELVAAISFSGGSTYYADSVKGRFTISRDNAKNTVYLQMNSLKPEDTAVYYCAADPWWTRTDLDYWGQGTQVTVSS
  polyreactivity (PSR sort gate): low polyreactivity

## QVQLVESGGGLVQAGGSLRLSCAASGSTLVTNSMGWYRKAPGKERELVAAITFSGGTTYYADSVKGRFTISLDNAKNTVYLQMNSLKPEDTAVYYCAAEIWLEYVGYDYCGQGTQVTVSS
  polyreactivity (PSR sort gate): high polyreactivity

## LVQLQESGGGLVQPGGRLRLSCAASGTISPGGYMGWYRQAPGKERELVASINVGGRTNYADSVKGRFTISRDNAKNTVYLQMNSLKPEDNAVSYCAVWGRNRLQLSYWGQGTQVTVSS
  polyreactivity (PSR sort gate): low polyreactivity

## QVQLVESGGGLVQAGGSLRLSCAASGFISYFYAMGWYRQAPGKERELVAAISWNGARTYYADSVKGRFTISRDNAKNTVYLQMNSLKPEDTAVYYCNAGTFTRRRGLDYWGQGTQVTVSS
  polyreactivity (PSR sort gate): low polyreactivity

## QVQLVESAGGLVQAGGSLRLICAATGRIYEIYAMGWYRQAPGTERELVATIDSGGSTNYADSVKGRFTISRDNAKNTVYLQMNSLQPEDTAVYYCAGGNPFYDSIGYDYWGQGTQVTVSS
  polyreactivity (PSR sort gate): low polyreactivity

## QDQHVESGGGLVQAGGSLRLSGADSGSIFLLYAMGCYRQAPGKERELVAAISTRDGSTYYADSVKGRFTISRDNAKNTVYLQMNSLKPEDTAVYYCATLYSYNYWGQGTQVTVSS
  polyreactivity (PSR sort gate): high polyreactivity

## QVQLVESGGGLVQAGGSLRLSCAASGSIFDYNAMGWYTQAPGKERELVAAITSGGSTNYADSVKGRFTISRDNAKNTVYLQMNTLKPEDTAVYYCAADHDYYPTNLDYWGQGTQVTVSS
  polyreactivity (PSR sort gate): low polyreactivity

## QVQLVESGGGLVQAGGSLRLSCAASGLTSVRYAMGWYRQAPGKERELVARISTGGSTYYADSVKGRFTISRDNAKNTVYLQMNSLKPEDTAVYYCNKGYARRYASGYDYWGQGTQVTVSS
  polyreactivity (PSR sort gate): high polyreactivity

## QVQLVESVGGLVQAGGSLRLSCAATGSTFGVNDMGWYRQSPGKERQFVADITTSGGSTYYADSVKWRFTISRDIAKNTVYLQMNSLKPEDTAVYYCAADLWPFEHDDYWGQGTQVTVSS
  polyreactivity (PSR sort gate): low polyreactivity

## QVQLVESGGGLVQAGGSLRLSCAASGSTQRFYAMGWYRQAPGKERELVAVISRGGSTYFADSVKGRFTISRDNAKNTVYLQMNSLKPEDTAVYYCAAYHRTSAARPIYDYWGQGTQVTVSS
  polyreactivity (PSR sort gate): low polyreactivity

## QVQLVESGGGLVQAGGSLRLSCAAYGSIFRLYAIGWSRQAPGKDRELVAAISSVGRTYYAYSVKGRFTISRDNAKNTVYLQMNSLKPEDSAVYYCAARPYKFARYDYWGQGTQVTVSS
  polyreactivity (PSR sort gate): high polyreactivity

## QVQLVESGGGLVQAGGSLRLSCAASGSTFRYYTMGWYRQAPGKERELVAAISGSGGITYYADSVKGRFTMSRDNAKNNVYLQMNSLKPEDTAVYYCNAGVFYRDDYWGQGTQVTVSS
  polyreactivity (PSR sort gate): high polyreactivity

## QVQLVESGGGLVQAGGSLRLSCAASGFIFGAYAMGWYRQAPGKERELVAAISRRGGSTYYADSVKGRFTISRDNAKNTVYLQMNSLKPEDTAVYYCAADISGSYYRPQYDYWGQGTQVTVSS
  polyreactivity (PSR sort gate): low polyreactivity

## QVQLVESGGGLVQAGGSLRLSCAASGSIFIWNAMGWYRQAPGKERELVAAISFSGGSTYYADSVKGRFTISRDNAKNTVYLQMNSLKPEDTAVYYCAADSFSGRYYWWEYDYWGQGTQVTVSS
  polyreactivity (PSR sort gate): low polyreactivity

— the nanobody polyreactivity screen of Harvey et al. (2022)
